System: Bacillus subtilis
Experiment: cleaved RNA product abundance (RNA/gDNA barcode ratio) relative to median wild-type variant (ratio to wild type); higher = more accumulation of the downstream cleavage product
Settings: experiment (reporter, strain, medium): exp 8a: truncated aprE reporter, strain BJT201 with 2% xylose (RNase J1 expressed); cleavage site: glnRA (positions -5 to +31 mutated)
Summary of the method: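 In LB at 37°C, B. subtilis cultures went from OD600 0.0003 to 0.3. Their chromosomes held barcoded reporter mRNAs, truncated aprE or tetM, with RNase Y cleavage-site windows mutagenized via oligos at a 9% error rate. Cleaved RNA, chosen by gel, was reverse transcribed and barcode-sequenced alongside genomic DNA barcodes with UMI collapsing, giving a per-construct RNA:gDNA ratio scaled to the median construct with the unmutated site. This scaled ratio is termed cleaved product abundance.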

Sequence	cleaved RNA product abundance
CGACATGTCCCGCTTCTTTCATTAATCCGTTCGCAACAGTTTTGCTATATACATTTACCTTTTAAGAGGAGGAAT	0.419
CGACATGTCCCGCTTCTTTCATTAATCCGTTCGCAACTGTTATGCTATATACATTTACCTTTTAAGAGGAGGAAT	0.349
CGACATGTCCCGCTTCTTTCATTAATCCGTTCGCAACTGTTTTACTATATACATTTACCTTTTAAGAGGAGGAAT	0.418
CGACATGTCCCGCTTCTTTCATTAATCCGTTCGCAACTGTTTTGATATATACATTTACCTTTTAAGAGGAGGAAT	0.334
CGACATGTCCCGCTTCTTTCATTAATCCGTTCGCAACTGTTTTGCTATAAACATTTACCTTTTAAGAGGAGGAAT	0.122
CGACATGTCCCGCTTCTTTCATTAATCCGTTCGCAACTGTTTTGCTATATACATTTACCTTTTAAGAGGAGGAAT	0.345
CGACATGTCCCGCTTCTTTCATTAATCCGTTCGCAACTGTTTTGCTATATACATTTACGTTTTAAGAGGAGGAAT	0.342
CGACATGTCCCGCTTCTTTCATTAATCCGTTCGCAACTGTTTTGCTATATATATTTACCTTTTAAGAGGAGGAAT	0.324
CGACATGTCCCGCTTCTTTCATTAATCCGTTCGCAACTGTTTTGTTATATACATTTACCTTTTAAGAGGAGGAAT	0.411
CGACATGTCCCGCTTCTTTCATTAATCCGTTCGCAACTTTTTTGCTATATACATTTACCTTTTAAGAGGAGGAAT	0.381
CGACATGTCCCGCTTCTTTCATTAATCCGTTCGCAATTGTTTTGCTATATACATTTACCTTTTAAGAGGAGGAAT	0.31
CGACATGTCCCGCTTCTTTCATTAATCCGTTGCCAACTGTTTTGCTATATACATTTACCTTTTAAGAGGAGGAAT	0.264
CGACATGTCCCGCTTCTTTCATTAATCCGTTGGCAACTATTTTGCTATATACATTTACCTTTTAAGAGGAGGAAT	0.866
CGACATGTCCCGCTTCTTTCATTAATCCGTTGGCAACTGATTTGCTATATACATTTACCTTTTAAGAGGAGGAAT	0.729
CGACATGTCCCGCTTCTTTCATTAATCCGTTGGCAACTGTTTAGCTATATACATTTACCTTTTAAGAGGAGGAAT	0.38
CGACATGTCCCGCTTCTTTCATTAATCCGTTGGCAACTGTTTTGCTATAAACATTTACCTTTTAAGAGGAGGAAT	0.509
CGACATGTCCCGCTTCTTTCATTAATCCGTTGGCAACTGTTTTGCTATATACATTTACCTTTTAAGAGGAGGAAT	0.739
CGACATGTCCCGCTTCTTTCATTAATCCGTTGGCAACTGTTTTGCTATATACATTTACTTTTTAAGAGGAGGAAT	0.61
CGACATGTCCCGCTTCTTTCATTAATCCGTTGGCAACTGTTTTGCTATGTACATTTACCTTTTAAGAGGAGGAAT	0.1
CGACATGTCCCGCTTCTTTCATTAATCCGTTGGCAATTGTTTTGCTATATACATTTACCTTTTAAGAGGAGGAAT	1.12
CGACATGTCCCGCTTCTTTCATTAATCCGTTTACAACTGTTTTGCTATATACATTTACCTTTTAAGAGGAGGAAT	0.276
CGACATGTCCCGCTTCTTTCATTAATCCGTTTGAAACTGTTTTGCTATATACATTTACCTTTTAAGAGGAGGAAT	0.388

Sequence	cleaved RNA product abundance
CGACATGTCCCGCTTCTTTCATTAATCCGTTTGCAAATGTTTTGCTATATACATTTACCTTTTAAGAGGAGGAAT	0.446
CGACATGTCCCGCTTCTTTCATTAATCCGTTTGCAACTATTTTGCTATATACATTTACCTTTTAAGAGGAGGAAT	0.859
CGACATGTCCCGCTTCTTTCATTAATCCGTTTGCAACTCTTTTGCTATATACATTTACCTTTTAAGAGGAGGAAT	0.483
CGACATGTCCCGCTTCTTTCATTAATCCGTTTGCAACTGATTTGCTATATACATTTACCTTTTAAGAGGAGGAAT	0.51
CGACATGTCCCGCTTCTTTCATTAATCCGTTTGCAACTGTTATGCTATATACATTTACCTTTTAAGAGGAGGAAT	0.428
CGACATGTCCCGCTTCTTTCATTAATCCGTTTGCAACTGTTTAGCTATATACATTTACCTTTTAAGAGGAGGAAT	0.517
CGACATGTCCCGCTTCTTTCATTAATCCGTTTGCAACTGTTTTACTATATACATTTACCTTTTAAGAGGAGGAAT	0.879
CGACATGTCCCGCTTCTTTCATTAATCCGTTTGCAACTGTTTTGATATATACATTTACCTTTTAAGAGGAGGAAT	0.421
CGACATGTCCCGCTTCTTTCATTAATCCGTTTGCAACTGTTTTGCTAAATACATTTACCTTTTAAGAGGAGGAAT	0.289
CGACATGTCCCGCTTCTTTCATTAATCCGTTTGCAACTGTTTTGCTACATACATTTACCTTTTAAGAGGAGGAAT	0.623
CGACATGTCCCGCTTCTTTCATTAATCCGTTTGCAACTGTTTTGCTATACACATTTACCTTTTAAGAGGAGGAAT	0.386
CGACATGTCCCGCTTCTTTCATTAATCCGTTTGCAACTGTTTTGCTATATACAATTACCTTTTAAGAGGAGGAAT	0.478
CGACATGTCCCGCTTCTTTCATTAATCCGTTTGCAACTGTTTTGCTATATACATATACCTTTTAAGAGGAGGAAT	0.478
CGACATGTCCCGCTTCTTTCATTAATCCGTTTGCAACTGTTTTGCTATATACATTGACCTTTTAAGAGGAGGAAT	0.837
CGACATGTCCCGCTTCTTTCATTAATCCGTTTGCAACTGTTTTGCTATATACATTTAACTTTTAAGAGGAGGAAT	0.827
CGACATGTCCCGCTTCTTTCATTAATCCGTTTGCAACTGTTTTGCTATATACATTTACATTTTAAGAGGAGGAAT	0.626
CGACATGTCCCGCTTCTTTCATTAATCCGTTTGCAACTGTTTTGCTATATACATTTACCATTTAAGAGGAGGAAT	0.88
CGACATGTCCCGCTTCTTTCATTAATCCGTTTGCAACTGTTTTGCTATATACATTTACCTTTTAAGAGGAGGAAT	0.549
CGACATGTCCCGCTTCTTTCATTAATCCGTTTGCAACTGTTTTGCTATATACATTTACGTTTTAAGAGGAGGAAT	0.661
CGACATGTCCCGCTTCTTTCATTAATCCGTTTGCAACTGTTTTGCTATATACATTTACTTTTTAAGAGGAGGAAT	0.552
CGACATGTCCCGCTTCTTTCATTAATCCGTTTGCAACTGTTTTGCTATCTACATTTACCTTTTAAGAGGAGGAAT	0.203
CGACATGTCCCGCTTCTTTCATTAATCCGTTTGCAACTGTTTTTCTATATACATTTACCTTTTAAGAGGAGGAAT	0.768

Sequence	cleaved RNA product abundance
CGACATGTCCCGCTTCTTTCATTAATCCGTTTGCAATTGTTTTGCTATATACATTTACCTTTTAAGAGGAGGAAT	0.536
CGACATGTCCCGCTTCTTTCATTAATCCGTTTGCACCTGTTTTGCTATATACATTTACCTTTTAAGAGGAGGAAT	0.295
CGACATGTCCCGCTTCTTTCATTAATCCGTTTGCATCTGTTTTGCTATATACATTTACCTTTTAAGAGGAGGAAT	0.274
CGACATGTCCCGCTTCTTTCATTAATCCGTTTTCAACTGTTTTGCTATATACATTTACCTTTTAAGAGGAGGAAT	0.247
CGACATGTCCCGCTTCTTTCATTAATCCTATAGCAACTGTTTTGCTATATACATTTACCTTTTAAGAGGAGGAAT	0.458
CGACATGTCCCGCTTCTTTCATTAATCCTCTAGCAACTGTTTTGCTATATACATTTACCTTTTAAGAGGAGGAAT	0.492
CGACATGTCCCGCTTCTTTCATTAATCCTTAAGCAACTGTTTTGCTATATACATTTACCTTTTAAGAGGAGGAAT	0.419
CGACATGTCCCGCTTCTTTCATTAATCCTTAGCACCTGTTTTGCTATATACATTATCCTTTTAAGAGGAGGAATT	0.144
CGACATGTCCCGCTTCTTTCATTAATCCTTCAGCAACTGTTTTGCTATATACATTTACCTTTTAAGAGGAGGAAT	0.478
CGACATGTCCCGCTTCTTTCATTAATCCTTGAGCAACTGTTTTGCTATATACATTTACCTTTTAAGAGGAGGAAT	0.57
CGACATGTCCCGCTTCTTTCATTAATCCTTTAAAAAGTGTTTTGCTATATACATTTACCTTTTAAGAGGAGGAAT	0.182
CGACATGTCCCGCTTCTTTCATTAATCCTTTAACAACTGTTTTGCTATATACATTTACCTTTTAAGAGGAGGAAT	0.154
CGACATGTCCCGCTTCTTTCATTAATCCTTTACCAACTGTTTTGCTATATACATTTACCTTTTAAGAGGAGGAAT	0.125
CGACATGTCCCGCTTCTTTCATTAATCCTTTAGAAACTGTTTTGCTATATACATTTACCTTTTAAGAGGAGGAAT	0.18
CGACATGTCCCGCTTCTTTCATTAATCCTTTAGCAAATGTTTTGCTATATACATTTACCTTTTAAGAGGAGGAAT	0.608
CGACATGTCCCGCTTCTTTCATTAATCCTTTAGCAACAGTTTTGCTATATACATTTACCTTTTAAGAGGAGGAAT	0.115
CGACATGTCCCGCTTCTTTCATTAATCCTTTAGCAACGGTTTTGCTATATACATTTACCTTTTAAGAGGAGGAAT	0.7
CGACATGTCCCGCTTCTTTCATTAATCCTTTAGCAACTATTTTGCTATATACATTTACCTTTTAAGAGGAGGAAT	0.828
CGACATGTCCCGCTTCTTTCATTAATCCTTTAGCAACTCTTTTGCTATATACATTTACCTTTTAAGAGGAGGAAT	1.2
CGACATGTCCCGCTTCTTTCATTAATCCTTTAGCAACTGATTTGCTATATACATTTACCTTTTAAGAGGAGGAAT	0.509
CGACATGTCCCGCTTCTTTCATTAATCCTTTAGCAACTGCTTTGCTATATACATTTACCTTTTAAGAGGAGGAAT	0.292
CGACATGTCCCGCTTCTTTCATTAATCCTTTAGCAACTGGTTTGCTATATACATTTACCTTTTAAGAGGAGGAAT	0.306
